Measured values: US20140030278A1 (QUIAPEG PHARMACEUTICALS, published 2014)

Columns and labels:
[1] = biological target: T1, Recombinant human TNF-alpha (human, UniProt P01375 77-233); assay: pre-incubation with 2.9 ng/ml rhTNF-alpha, ELISA of unbound rhTNF-alpha
T1 construct: Bought reagent; also called rhTNF-alpha; TNF-α
Method: (§1) A fixed concentration of 2.9 ng/ml rhTNF-alpha was used in all incubations. PEGylation was conducted in 5 time molar excess (5 eq) or 10 time molar excess (10 eq) of PEG20 compared etanercept. IC₅₀ is expressed as gram etanercept per ml.
(§2) Recombinant human TNF-alpha (rhTNF-alpha; AbCam PLC, Cambridge, UK; at a fixed concentration of 2.9 ng/ml) was mixed with different concentrations (29000 ng/ml—56.6 pg/ml) of non-PEGylated etanercept, PEG20-etanercept (5 eq) or PEG20-etanercept (10 eq). The pre-incubation mixtures were incubated in a refrigerator at 4-8° C. overnight. The amount of unbound rhTNF-alpha was analysed with a sensitive enzyme-linked immunosorbent assay (ELISA). In brief, 96-well plates (MaxiSorb, Nunc, Roskilde, Denmark) were used for the ELISA. Plates were coated with two anti-TNF-alpha monoclonal antibodies (TNF3/4, Mabtech AB, Nacka Strand, Sweden) diluted in PBS, pH 7.4, to a final concentration of 2 μg/ml. The 96-well plates were incubated in a refrigerator at 4-8° C. overnight. […] The optical density of the resultant yellow color was measured in a spectrophotometer at 450 nm.

[2] = biological target: T1, Recombinant human TNF-alpha; assay: pre-incubation with 2.9 ng/ml rhTNF-alpha, ELISA of unbound rhTNF-alpha, 4-parameter fit
Method: as §1, §2

T1 sequence (P01375 77-233 limits assumed): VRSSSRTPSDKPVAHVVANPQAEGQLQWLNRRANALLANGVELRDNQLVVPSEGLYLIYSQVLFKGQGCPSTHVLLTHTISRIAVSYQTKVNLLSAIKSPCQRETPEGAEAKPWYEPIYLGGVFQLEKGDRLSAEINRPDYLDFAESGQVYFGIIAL

binding result [1]	fold IC50 against non-PEGylated etanercept [2]	Binder
binds	–	etanercept (ENBREL®), non-PEGylated (Fc fusion, Commercial ENBREL (Wyeth Europa Ltd); also called etanercept (non-PEGylated); non-PEGylated etanercept) LPAQVAFTPYAPEPGSTCRLREYYDQTAQMCCSKCSPGQHAKVFCTKTSDTVCDSCEDSTYTQLWNWVPECLSCGSRCSSDQVETQACTREQNRICTCRPGWYCALSKQEGCRLCAPLRKCRPGFGVARPGTETSDVVCKPCAPGTFSNTTSSTDICRPHQICNVVAIPGNASMDAVCTSTSPTRSMAPGAVHLPQPVSTRSQHTQPTPEPSTAPSTSFLLPMGPSPPAEGSTGDEPKSCDKTHTCPPCPAPELLGGPSVFLFPPKPKDTLMISRTPEVTCVVVDVSHEDPQVKFNWYVDGVQVHNAKTKPREQQYNSTYRVVSVLTVLHQNWLDGKEYKCKVSNKALPAPIEKTISKAKGQPREPQVYTLPPSREEMTKNQVSLTCLVKGFYPSDIAVEWESNGQPENNYKTTPPVLDSDGSFFLYSKLTVDKSRWQQGNVFSCSVMHEALHNHYTQKSLSLSPGK
–	< 2 fold	PEG20-etanercept (10 eq) (Fc fusion, 20 KDa PEG (PEG20) conjugated via NHS-ester PEG reagent at 10 times molar excess; sites not stated, also called PEGylated etanercept) LPAQVAFTPYAPEPGSTCRLREYYDQTAQMCCSKCSPGQHAKVFCTKTSDTVCDSCEDSTYTQLWNWVPECLSCGSRCSSDQVETQACTREQNRICTCRPGWYCALSKQEGCRLCAPLRKCRPGFGVARPGTETSDVVCKPCAPGTFSNTTSSTDICRPHQICNVVAIPGNASMDAVCTSTSPTRSMAPGAVHLPQPVSTRSQHTQPTPEPSTAPSTSFLLPMGPSPPAEGSTGDEPKSCDKTHTCPPCPAPELLGGPSVFLFPPKPKDTLMISRTPEVTCVVVDVSHEDPQVKFNWYVDGVQVHNAKTKPREQQYNSTYRVVSVLTVLHQNWLDGKEYKCKVSNKALPAPIEKTISKAKGQPREPQVYTLPPSREEMTKNQVSLTCLVKGFYPSDIAVEWESNGQPENNYKTTPPVLDSDGSFFLYSKLTVDKSRWQQGNVFSCSVMHEALHNHYTQKSLSLSPGK
–	< 2 fold	PEG20-etanercept (5 eq) (Fc fusion, 20 KDa PEG (PEG20) conjugated via NHS-ester PEG reagent at 5 times molar excess; sites not stated, also called PEGylated etanercept) LPAQVAFTPYAPEPGSTCRLREYYDQTAQMCCSKCSPGQHAKVFCTKTSDTVCDSCEDSTYTQLWNWVPECLSCGSRCSSDQVETQACTREQNRICTCRPGWYCALSKQEGCRLCAPLRKCRPGFGVARPGTETSDVVCKPCAPGTFSNTTSSTDICRPHQICNVVAIPGNASMDAVCTSTSPTRSMAPGAVHLPQPVSTRSQHTQPTPEPSTAPSTSFLLPMGPSPPAEGSTGDEPKSCDKTHTCPPCPAPELLGGPSVFLFPPKPKDTLMISRTPEVTCVVVDVSHEDPQVKFNWYVDGVQVHNAKTKPREQQYNSTYRVVSVLTVLHQNWLDGKEYKCKVSNKALPAPIEKTISKAKGQPREPQVYTLPPSREEMTKNQVSLTCLVKGFYPSDIAVEWESNGQPENNYKTTPPVLDSDGSFFLYSKLTVDKSRWQQGNVFSCSVMHEALHNHYTQKSLSLSPGK
